Patent publication US12357670B2, “Topical cream-based cosmetic and wound healing formulations and methods of use” (Eir Pharmaceuticals, LLC, priority 2018, dated 2025)

What was measured:
[1] = Stability of protein in the cream-based formulation (SDS-PAGE); assay type: physicochemical; conditions: in the cream formulations, stored at room temperature
Experimental: Stability is a major issue in incorporating recombinant proteins as active ingredients into a commercial product. […] Samples were then prepared for analysis and loaded onto an SDS-PAGE gel.
The samples were: Lane 1 contains TRIM Family Member protein that was stored in Phosphate Buffered Saline (PBS) at 4° C. for 13 months. Lane 2-4 are samples of the cream-based formulation containing the TRIM Family Member protein. The arrows indicate the band corresponding to the molecular weight of TRIM Family Member protein in each of the samples in Lanes 2-4. […] This is indicated by the lack of doublet bands in the cream samples. Thus, these formulations for the Emulsifier and Hydrogel are viable systems to maintain the activity of the active ingredient.

[2] = Isoelectric point / net charge of TRIM family member; assay type: physicochemical

## TRIM Family Member protein: TRIM-family member protein, MG53, active ingredient of the cream
[1]
  activity of the active ingredient on storage: remains active for over one year
[2]
  isoelectric point: 6.08
[2]; physiological pH of blood (7.35)
  net charge: negative
